No end group written: not given here.
How the values were obtained:
Test in all cases: Kinase Profiling Assay
Type in all cases: biochemical
Conditions in all cases: peptide 100 μM
DDR2(h) = target: T1, DDR2(h) (Homo sapiens, UniProt Q16832)
T1 sequence (Q16832 22-855): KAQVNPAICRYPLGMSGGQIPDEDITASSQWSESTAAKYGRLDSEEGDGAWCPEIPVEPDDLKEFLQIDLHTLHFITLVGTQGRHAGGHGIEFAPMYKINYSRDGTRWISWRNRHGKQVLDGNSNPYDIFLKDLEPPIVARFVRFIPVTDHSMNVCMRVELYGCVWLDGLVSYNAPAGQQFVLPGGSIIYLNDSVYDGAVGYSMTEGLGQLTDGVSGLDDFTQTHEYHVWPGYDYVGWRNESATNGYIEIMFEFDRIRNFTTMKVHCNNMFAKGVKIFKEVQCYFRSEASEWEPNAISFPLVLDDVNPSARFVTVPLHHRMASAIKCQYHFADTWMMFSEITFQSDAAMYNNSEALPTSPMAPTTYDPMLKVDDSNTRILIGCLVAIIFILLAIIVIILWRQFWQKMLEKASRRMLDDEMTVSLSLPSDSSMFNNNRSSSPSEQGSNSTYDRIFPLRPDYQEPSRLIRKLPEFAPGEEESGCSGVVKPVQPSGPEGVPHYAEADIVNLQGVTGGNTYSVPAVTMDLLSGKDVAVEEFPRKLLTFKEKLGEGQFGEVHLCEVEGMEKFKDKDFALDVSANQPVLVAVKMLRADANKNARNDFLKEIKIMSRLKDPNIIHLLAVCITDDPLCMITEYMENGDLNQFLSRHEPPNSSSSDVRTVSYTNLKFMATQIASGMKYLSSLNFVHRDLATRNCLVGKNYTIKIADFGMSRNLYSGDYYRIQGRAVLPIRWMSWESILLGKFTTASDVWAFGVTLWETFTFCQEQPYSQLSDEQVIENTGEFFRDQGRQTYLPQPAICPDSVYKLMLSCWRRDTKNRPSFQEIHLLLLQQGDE
Procedure, shortened: (§1)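 In this 266-kinase specificity panel, every measurement was duplicated. Transfer of labeled phosphate from ATP to a cationic substrate was quantified after the substrate adhered to an anionic filter membrane and was scintillation-counted, then related to a full-activity control.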

MAPK2(h) = target: T2, MAPK2(h) (Homo sapiens, UniProt P28482)
T2 construct: purchased Millipore
T2 sequence (P28482 whole entry): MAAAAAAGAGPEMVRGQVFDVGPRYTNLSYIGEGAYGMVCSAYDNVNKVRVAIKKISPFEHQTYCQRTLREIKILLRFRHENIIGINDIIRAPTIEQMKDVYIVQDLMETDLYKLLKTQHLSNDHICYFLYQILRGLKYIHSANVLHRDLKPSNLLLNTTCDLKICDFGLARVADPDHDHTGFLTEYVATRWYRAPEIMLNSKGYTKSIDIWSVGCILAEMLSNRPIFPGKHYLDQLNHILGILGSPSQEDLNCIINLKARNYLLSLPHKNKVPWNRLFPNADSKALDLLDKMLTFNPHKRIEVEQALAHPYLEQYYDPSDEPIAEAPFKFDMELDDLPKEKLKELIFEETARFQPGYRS
Procedure, shortened: as §1

NEK11(h) = target: T3, NEK11(h) (Homo sapiens, UniProt Q8NG66)
T3 construct: purchased Millipore
T3 sequence (Q8NG66 1-645): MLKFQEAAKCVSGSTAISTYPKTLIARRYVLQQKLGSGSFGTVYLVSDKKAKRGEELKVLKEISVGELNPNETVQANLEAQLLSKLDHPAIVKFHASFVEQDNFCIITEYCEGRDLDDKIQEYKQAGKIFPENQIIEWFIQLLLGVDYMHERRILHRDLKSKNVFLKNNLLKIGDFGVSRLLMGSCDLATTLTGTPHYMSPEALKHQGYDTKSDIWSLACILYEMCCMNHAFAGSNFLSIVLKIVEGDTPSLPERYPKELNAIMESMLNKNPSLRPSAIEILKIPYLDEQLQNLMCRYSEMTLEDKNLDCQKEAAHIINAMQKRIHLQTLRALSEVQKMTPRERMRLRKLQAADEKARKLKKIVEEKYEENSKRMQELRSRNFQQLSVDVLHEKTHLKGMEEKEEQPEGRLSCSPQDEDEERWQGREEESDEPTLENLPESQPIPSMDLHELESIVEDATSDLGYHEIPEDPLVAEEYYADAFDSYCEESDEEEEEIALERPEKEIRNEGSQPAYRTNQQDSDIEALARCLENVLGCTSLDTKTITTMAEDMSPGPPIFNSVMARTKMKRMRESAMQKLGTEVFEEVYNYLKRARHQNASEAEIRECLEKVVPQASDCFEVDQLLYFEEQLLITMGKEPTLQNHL
Procedure, shortened: as §1

PKCα(h) = PKCα(h) (Homo sapiens, UniProt P17252)
Procedure, shortened: as §1

Bmx(h) = target: T4, Bmx(h) (Homo sapiens, UniProt P51813)
T4 sequence (P51813 1-675): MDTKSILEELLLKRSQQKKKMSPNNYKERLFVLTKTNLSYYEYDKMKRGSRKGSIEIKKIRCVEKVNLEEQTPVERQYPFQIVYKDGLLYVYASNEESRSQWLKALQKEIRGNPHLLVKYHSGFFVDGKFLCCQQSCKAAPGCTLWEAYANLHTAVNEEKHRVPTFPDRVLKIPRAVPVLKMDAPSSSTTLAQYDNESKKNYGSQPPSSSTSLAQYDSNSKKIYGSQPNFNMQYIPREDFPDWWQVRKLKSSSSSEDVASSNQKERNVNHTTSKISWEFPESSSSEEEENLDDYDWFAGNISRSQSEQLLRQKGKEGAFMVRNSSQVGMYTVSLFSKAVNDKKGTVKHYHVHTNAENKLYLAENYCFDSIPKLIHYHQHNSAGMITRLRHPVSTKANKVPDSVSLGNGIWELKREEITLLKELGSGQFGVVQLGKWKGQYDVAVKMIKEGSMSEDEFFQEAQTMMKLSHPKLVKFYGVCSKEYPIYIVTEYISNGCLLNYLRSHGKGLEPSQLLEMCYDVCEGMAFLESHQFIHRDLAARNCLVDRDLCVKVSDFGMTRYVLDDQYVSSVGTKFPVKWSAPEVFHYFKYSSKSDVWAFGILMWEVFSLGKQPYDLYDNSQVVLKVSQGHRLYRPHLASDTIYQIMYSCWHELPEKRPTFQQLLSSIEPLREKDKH
Procedure, shortened: as §1

## KAFAKLAARLYRKALARQLGVAA [MMI-0400]
DDR2(h)
  % activity: 95%
MAPK2(h)
  % activity: 93%
NEK11(h)
  % activity: 33%
PKCα(h)
  % activity: 86%
Bmx(h)
  % activity: 26%

## FAKLAARLYRKALARQLGVAA [MMI-0300]
DDR2(h)
  % activity: 94%
MAPK2(h)
  % activity: 98%
NEK11(h)
  % activity: 53%
PKCα(h)
  % activity: 89%

## YARAAARQARAKALARQLGVAA [MMI-0100]
Bmx(h)
  % activity: 62%

## HRRIKAWLKKIKALARQLGVAA (Mammal) [MMI-0500]
DDR2(h)
  % activity: 79%
MAPK2(h)
  % activity: 60%
NEK11(h)
  % activity: 2%
PKCα(h)
  % activity: 3%
Bmx(h)
  % activity: 45%

## YARAAARQARAKALNRQLGVA (Mammal) [MMI-0200]
NEK11(h)
  % activity: 95%
PKCα(h)
  % activity: 100%
Bmx(h)
  % activity: 76%

From patent US20150258192A1, “COMPOSITIONS AND METHODS FOR PREVENTING OR TREATING CHRONIC LUNG ALLOGRAFT DYSFUNCTION (CLAD) AND IDIOPATHIC PULMONARY FIBROSIS (IPF)” (priority 2014, published 2015)
